This note sets out measurements from publication PMC9696751.

The target of the assay is nano-HER2-E3 (UniProt P04637). Kind of assay: SEC; analytical chromatography on Superdex 200 Increase 5/150 GL; equimolar mixtures. (Size exclusion chromatography separates by hydrodynamic size, large species first.)

Ends that are not written are not given here.

B1: 647-C-K3 (peptide)
peptide: C(Alexa‑647 maleimide)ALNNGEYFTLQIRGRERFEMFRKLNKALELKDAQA
On to B1, for which the formation of the complexes (percent) is under 95%.
